Measured values: patent US20170183380A1 (published 2017)
Where no end group is shown, it is not given here.

Experiments:
[1] = biological target: HER2 on TUBO cells (mice cell line), HER2-overexpressing (UniProt P06494 23-1257); assay: cell-based or functional assay
[2] = biological target: HER2 on HER2-overexpressing breast cancer cells (SK-Br-3: human cell line) (human, UniProt P04626 23-1255); assay: cell-based or functional assay

HER2 on TUBO cells (mice cell line), HER2-overexpressing, sequence (P06494 23-1257): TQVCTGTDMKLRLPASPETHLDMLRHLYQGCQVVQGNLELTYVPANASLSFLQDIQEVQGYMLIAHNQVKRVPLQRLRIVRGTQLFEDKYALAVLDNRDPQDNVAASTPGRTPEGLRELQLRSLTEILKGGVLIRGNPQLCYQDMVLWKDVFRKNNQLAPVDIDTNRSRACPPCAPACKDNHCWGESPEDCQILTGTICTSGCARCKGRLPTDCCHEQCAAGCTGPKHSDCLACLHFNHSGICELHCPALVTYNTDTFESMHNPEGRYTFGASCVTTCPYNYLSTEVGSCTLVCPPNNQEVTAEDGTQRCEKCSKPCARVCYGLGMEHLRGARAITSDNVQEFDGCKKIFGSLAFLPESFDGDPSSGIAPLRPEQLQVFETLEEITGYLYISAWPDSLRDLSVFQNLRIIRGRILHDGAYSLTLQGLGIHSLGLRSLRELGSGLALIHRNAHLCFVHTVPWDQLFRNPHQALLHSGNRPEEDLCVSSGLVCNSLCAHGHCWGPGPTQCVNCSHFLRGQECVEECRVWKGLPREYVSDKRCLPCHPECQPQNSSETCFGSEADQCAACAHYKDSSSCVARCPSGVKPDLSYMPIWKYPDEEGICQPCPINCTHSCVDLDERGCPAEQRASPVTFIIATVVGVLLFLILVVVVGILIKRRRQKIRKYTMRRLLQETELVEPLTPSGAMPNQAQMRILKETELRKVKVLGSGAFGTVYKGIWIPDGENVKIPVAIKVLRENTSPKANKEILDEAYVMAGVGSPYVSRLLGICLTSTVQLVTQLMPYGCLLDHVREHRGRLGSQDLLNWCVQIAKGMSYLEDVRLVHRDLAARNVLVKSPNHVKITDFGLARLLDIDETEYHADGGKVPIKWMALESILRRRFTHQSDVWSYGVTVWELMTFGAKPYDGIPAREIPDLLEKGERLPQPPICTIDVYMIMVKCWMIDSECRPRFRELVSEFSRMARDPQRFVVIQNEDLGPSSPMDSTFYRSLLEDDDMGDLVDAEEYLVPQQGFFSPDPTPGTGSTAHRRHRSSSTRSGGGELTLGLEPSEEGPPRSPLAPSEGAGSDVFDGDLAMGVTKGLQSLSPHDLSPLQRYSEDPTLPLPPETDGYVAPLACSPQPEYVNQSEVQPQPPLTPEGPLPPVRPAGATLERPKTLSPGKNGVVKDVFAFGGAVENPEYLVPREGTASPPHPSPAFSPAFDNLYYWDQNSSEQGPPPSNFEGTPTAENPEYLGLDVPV

## C(Maleimide‑PEG2000‑DSPE)GGGLTVSPWY (not fully specified; also: order of spacer and peptide assumed) [LTVSPWY (SEQ ID NO: 1) peptide-liposome, post inserted liposome 100 Ligand]
[1]
  IC50 (cytotoxicity, MTT assay), TUBO cells, 3 hours: 8.08 µM
  IC50 (cytotoxicity, MTT assay), TUBO cells, 6 hours: 3.9 µM
[2]
  IC50 (cytotoxicity, MTT assay), SKBR3 cells, 3 hours: 17.9 µM
  IC50 (cytotoxicity, MTT assay), SKBR3 cells, 6 hours: 6.07 µM

## C(Maleimide‑PEG2000‑DSPE)GGGLTVSPWY (not fully specified; also: order of spacer and peptide assumed) [LTVSPWY (SEQ ID NO: 1) peptide-liposome, post inserted liposome 50 Ligand]
[1]
  IC50 (cytotoxicity, MTT assay), TUBO cells, 3 hours: 9.7 µM
  IC50 (cytotoxicity, MTT assay), TUBO cells, 6 hours: 4.6 µM
[2]
  IC50 (cytotoxicity, MTT assay), SKBR3 cells, 3 hours: 21.5 µM
  IC50 (cytotoxicity, MTT assay), SKBR3 cells, 6 hours: 10.4 µM

## C(Maleimide‑PEG2000‑DSPE)GGGLTVSPWY (not fully specified; also: order of spacer and peptide assumed) [LTVSPWY (SEQ ID NO: 1) peptide-liposome, post inserted liposome 25 Ligand]
[1]
  IC50 (cytotoxicity, MTT assay), TUBO cells, 3 hours: 11.1 µM
  IC50 (cytotoxicity, MTT assay), TUBO cells, 6 hours: 5.5 µM
[2]
  IC50 (cytotoxicity, MTT assay), SKBR3 cells, 3 hours: 24.9 µM
  IC50 (cytotoxicity, MTT assay), SKBR3 cells, 6 hours: 12.8 µM

## C(Maleimide‑PEG2000‑DSPE)GGGLTVSPWY (not fully specified; also: order of spacer and peptide assumed) [LTVSPWY (SEQ ID NO: 1) peptide-liposome, post inserted liposome 200 Ligand]
[1]
  IC50 (cytotoxicity, MTT assay), TUBO cells, 3 hours: 6.5 µM
  IC50 (cytotoxicity, MTT assay), TUBO cells, 6 hours: 2.5 µM
[2]
  IC50 (cytotoxicity, MTT assay), SKBR3 cells, 3 hours: 15.2 µM
  IC50 (cytotoxicity, MTT assay), SKBR3 cells, 6 hours: 4.9 µM
